Assay: soluble on expression in E. coli; label from the status in PepcDB or PDB records
In the case of “MATNWGSLLQDKQQLEELARQAVDRALAEGVLLRTSQEPTSSEVVSYAPFTLFPSLVPSALLEQAYAVQMDFNLLVDAVSQNAAFLEQTLSSTIKQDDFTARLFDIHKQVLKEGIAQTVFLGLNRSDYMFQRSADGSPALKQIEINTISASFGGLASRTPAVHRHVLSVLSKTKEAGKILSNNPSKGLALGIAKAWELYGSPNALVLLIAQEKERNIFDQRAIENELLARNIHVIRRTFEDISEKGSLDQDRRLFVDGQEIAVVYFRDGYMPRQYSLQNWEARLLLERSHAAKCPDIATQLAGTKKVQQELSRPGMLEMLLPGQPEAVARLRATFAGLYSLDVGEEGDQAIAEALAAPSRFVLKPQREGGGNNLYGEEMVQALKQLKDSEERASYILMEKIEPEPFENCLLRPGSPARVVQCISELGIFGVYVRQEKTLVMNKHVGHLLRTKAIEHADGGVAAGVAVLDNPYPV”, the “soluble on expression in E. coli” value is reported as “soluble”.
For “MGDNLTDLPGVGPSTAEKLVEAGYIDFMKIATATVGELTDIEGISEKAAAKMIMGARDLCDLGFKSGIDLLKQRSTVWKLSTSSSELDSVLGGGLESQSVTEFAGVFGSGKTQIMHQSCVNLQNPEFLFYDEEAVSKGEVAQPKAVYIDTDGTFRPERIMQMAEHAGIDGQTVLDNTFVARAYNSDMQMLFAEKIEDLIQEGNNIKLVVIDSLTSTFRNEYTGRGKLAERQQKLGRHMATLNKLADLFNCVVLVTNQVSAKPDAFFGMAEQAIGGHIVGHAATFRFFVRKGKGDKRVAKLYDSPHLPDAEAIFRITEKGIQD”, the “soluble on expression in E. coli” value was “soluble”.
In the case of “MPILQELRLGKRISRDISLADLYQEWIELKILPSSRSEETKKKYLLRKNTIERLFGNKKVTQIRASEYQRIMNKYGQTVGRNFLGRLNTGIHQSIQMAIADKVLIDDFTQHVELFSSKEQQMTLEHHHHHH”, the “soluble on expression in E. coli” value is reported as “not soluble”.
In the case of “MRAGVREVIDDSSERTLQQVIERAFLRTKGAIIRQKRVFGFVSAKGGDGGSCIAANFAFALSQEPDIHVLAVDISLPFGDLDMYLSGNTHSQDLADISNASDRLDKSLLDTMVQHISPSLDLIPSPATFEKIVNIEPERVSDLIHIAASFYDYIIVDFGASIDHVGVWVLEHLDELCIVTTPSLQSLRRAGQLLKLCKEFEKPISRIEIILNRADTNSRITSDEIEKVIGRPISKRIPQDEDAMQESLLSGQSVLKVAPKSQLSKTIVDWALHLNGVSRPNKRSIWERLKIK”, the “soluble on expression in E. coli” value is reported as “not soluble”.
For “MEQVIAQVIKRQQTEERPPDVLSQQTTKYEKRNSASLRKRKNSSKLYLKTDQNWMALREKLASNSIHDKGKYRQKRESNVTCFKSGVESGIQNSSVRSRETQVTFCDGTVPSQGLELANSKSTAEISSRNEIPRLTKVVALDCEFVGVGKLGKEHSLARVSIVNFKGEVLYDKYVLNDKEPVVDYRTSVSGIRPEHLRSSDAVSFEQAQRDVYSIIRNRILVGHAIHHDMHALLLSHPRKLIRDTSKWRGLRSHHLSRKTPSLRKLAQEILGIRIQDGEHDSVEDARATLMIYKRFAKEWEMELQTKKVKLARKKHR”, the “soluble on expression in E. coli” value was “soluble”.
In the case of “MSHHKLEVKNLSFTYPDGHKAIDGISFTVRHGESVGIVGENGAGKSTLLLVLMGVLFPNQGEVRVGDVRVTKKTLPLIRQRLGMVFQNPDDQLFMTTVYDDVAFGPRNYKLDEKEVEDRVMKSLDMVGISHLKDKAPYKLSGGEKRAAAIATVLSMQPDILVMDEPTSSLDPRSRRRVMELLKNFEHTKIITSHDLDMVLEICERTIVLKQGKVAADGLTSEILADKELMNTCGLEVPLALQGCPVCGEKKKYV”, the “soluble on expression in E. coli” value is reported as “soluble”.
In the case of “GMLSNLESSIQSPKSGEYQCLAALNLYDSPECTSLATQAAVGRHLQVTSNQQGAAVEVCLCEDDYPGWLSLGDLGLLKPATVLYQAKSFSESEIKKLLPGAIAFTQKAMQQSNYYLWGGTVGPNYDCSGLMQAAFVSVGIWLPRDAYQQEAFTQAITIDELAPGDLVFFGTPVKATHVGLYLGDGCYIHSSGKAQGRDGIGIDILSEQGDVVSRSYYQQLRGAGRVVKSYKPQRH”, the “soluble on expression in E. coli” value is reported as “soluble”.
In the case of “MSNNKQAWTGQLDLSVFNNGKKSVARDVFFEKALKVMRPVYLNQSDIPTFYIVNVGGGYLDGDRYTMNFNIDSDAKVILTSQGATKIYKTLNDHVEQYQTFNIKNNGYAEYVGDPIIAFENAKFYQHNVFNLESTASLFYTDILTPGYSKSDKRFSYTYMHLLNEIYVDDALVTFDNMLLDPQKQNVDGLGYMEDYTHLGSCYFIHPSVNQKFIEQVYEEIKHFQHKYDCRFGITHLPTHGFSLRILSNKTQVIESIITAVQCYVVKQIFDRDVDFLRKYLEHHHHHH”, the “soluble on expression in E. coli” value is reported as “not soluble”.

Reference: the DeepSol protein solubility set
